These results are taken from the supplement of paper PMC12636428.

This data set has as its system Saccharomyces cerevisiae. As to the kind of experiment: transcriptional activation domain activity (GFP:mCherry ratio, weighted mean of sorted bins, harmonized to initial dataset scale) (arbitrary fluorescence ratio units); higher = stronger transcriptional activation. Particulars: beta-estradiol 1 µM; induction time 4 h. The essentials:
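Protein tiles carrying barcodes and fused to an estradiol-inducible synthetic transcription factor were placed at the URA3 locus of yeast diploids with a GFP reporter. Following 4 hours at 30 °C in SC with 1 uM beta-estradiol, cells were sorted into 8 GFP:mCherry bins, barcodes were sequenced, and tiles with fewer than 50 reads were discarded. Activation activity is given as the read-weighted mean of bin median fluorescence, averaged across barcodes and linearly mapped to the initial dataset scale.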
In the case of “SPTLSHCTDYRTPALAYNILITCSLFLLFRPKPLILFWCLVCIGFWHVALFSQ”, the “transcriptional activation domain activity” value stood at 52500.
With “YADWLLEPEQNNGTWVADVLWPAINLDLQWISSHWNQSSWDLWWPPVWGGSYW”, the “transcriptional activation domain activity” value was found to be 67800.
The result for “LGIRSILETAYRINRLTHMCLQHLLTRCNNLEPLELVGSVLFFLDKKLKRPPE” reads 50300.
With “TWHHSIYVPYSFVAAYDHPVCYLIHRFLPLYLTAITFRFHIMTYLLLVGLFSL” the figure was 45200.
For “CDAPKLGLSGATLFEMIRFLDLYQGDWDSFLSQILVHAQIIRVLREALLILTV”, the “transcriptional activation domain activity” value came out at 65300.
With “MWLVEVQLLHQSHSLLSHIICLFFLSPHLPSFVFSGALFVYSVMLVSLFFLYL”, the “transcriptional activation domain activity” value was 37400.
On to “FRFLLKLLLVHGRWNYIRTCKYTLGTFWKEMLFYLTQALYQRWAGYTGTSLYE”, for which the “transcriptional activation domain activity” value was 54800.
As to “MPRLCLWLTCIYGVMYCMEFSLLVYALHSLANEYYPASYGDNLGCVTVNLHYY”, the “transcriptional activation domain activity” value was 44400.
Consider “AKADGKRGRTGTGARRGKGKKVTREARGRRKVKRRRGARAGKGSAGRERERGE”, for which the “transcriptional activation domain activity” value came out at 34800.
Regarding “SASAAAKPAAAPLKKSTSGSLASKPAMSSTKPAAAPAAAPARRASVVPAKSSA”, the “transcriptional activation domain activity” value is 33900.
Turning to “DVDVDVGVDGRGRGFEAGDGREDGKGEEEGGRRLKRAGTDGEAVGGARAREVW”, the “transcriptional activation domain activity” value worked out at 32500.
With “AKSAQRRADEPGVMSLGELAVLWVKRARHLGQSLLRVVLVSYAVDLPANCVAL” the figure was 30100.
As for “MNQHYGFLNCDLFFYFFFSSLFLIWPFLLFSFSFTVFPYLFTIMETYFGHIKT”, the “transcriptional activation domain activity” value was 28700.
For “EADEEAAKAEHVHAPGEGGEGEGGGGPRRLEGKEGEREQKEIERQKKAEKDEK”, the “transcriptional activation domain activity” value came out at 44400.
Take “RDARARRTRERRRGRAERAPEEGRREERRKRGRGARGGRARGGAAGRGGRGEG”: the “transcriptional activation domain activity” value came to 32200.
The result for “KEEAESEAEASAPKGKKGTVKKPAAAAKAKDVDEPKAKRGRPKKTVAKDEVEN” reads under 6570; that for “GDAEPSSKGGEDSSGGEGSADEEKPKAKPAKAKSKSSSSKEPVKKKAKKEKKD”, 21400; that for “WSVMSCLYLVVRYFGIFLALLCGFWGGLLYIPESVSYGLIVLIEWGFSVYFWF”, 41400.
With “MLLLKCSLSWIIRKGIYRAKSVMYLWVVANECCSLSMAEWLFLHQSVCSICQC” the figure was 58100; with “APDAKTVLPIPELDDAVVESFFSSSTDSTPMFEYENLEDNSKEWTSLFDNDIP”, 137000.
The result for “VVLASSPSSQTTSSTSVVLIFGSDDKRVKEVGEGLKAKLDMRGGGKGTRWSGK” reads 14200; that for “LAHFVIHRGLIISIMQAVFSAIFYFAPIALYQGMLLVGYTTVYTMWPLFSLVL”, 58500.
For “NWYWLATTMYFLYGESVVYYLKHIVLVDKVLLPLATHHRFISFILYVFGFVFF”, the “transcriptional activation domain activity” value was found to be 46100.
On to “LLVLFACQIICETIVIGITSNAFSVVVLPPYFTGCLPGNIKPFAWVYWLPMLL”, for which the “transcriptional activation domain activity” value came out at 59400.
The result for “MLSQSGLPKVLGLASAFVYSWTPMILLACYTVGSLCFYLIIPSLLGEILWYIY” reads 60100.
Turning to “PDIKKRPRKKSRRASAEGSEIGTESGGSDDGRQESAQRRKVERKERAGSSKEV”, the “transcriptional activation domain activity” value amounted to 47100.
With “LLHPDKREPIDEDIWTVIPRGIRCEMMTFDLHIWLRRLVECLYKCLLENLVPT” the figure was 46600; with “MYYCLFFFFVSFCISLCFFYYYSQLCFFSTSFFAVSRGFFFISLSFLVCVWTI”, 57300; with “PIARESSSLFLANTPYLSDFLTMGSSYGGSGGFAKSITADPSLDYFNYKNHSH”, 68600.
With “LLGMFAQLAFADYVMTPSQARLALFVFERLLKLLRAAPYPCVRVAILQLLMWL” the figure was 45500; with “MLYFFFFYVYNVNIKQYLSIIMILFINGFSFYIYFLFHFLYIFFFFFLTITLS”, 88500.
Consider “EDGGEDGETGGKILTKAEKEKQKKEREKQRKKEQATPAKAAAEEKKVEAAPAA”, for which the “transcriptional activation domain activity” value stood at 32100.
For “ALVLLYIIRFVCTTLAKRFPSKSKLFFFMSTLRTVFVILLYTMISWLVNRHSR”, the “transcriptional activation domain activity” value was determined as 44800.
Consider “MCLYRYYGFRIFLCLVVVLGDLFLGYLKLYVYIYNTVLVYWGEISISLLLVYI”, for which the “transcriptional activation domain activity” value came out at 71900.
The result for “SLFFSVWALSQTWCVGHRRCSPMHLGTYYDAFIFLGISGMWKWSLLLIVIYRF” reads 34000.
As for “VAKCFEKVKALIGTFDLDVGRVLDVTLDVFASLLVKHHKFFIKLLRCSYWWPV”, the “transcriptional activation domain activity” value is 83300.
The result for “GASTSAFGTPSALGAKPNPFGTPATGGAFGQPAAAPAFGQPTQPAGAFGQPAQ” reads 40300.
The result for “YKTCILPGADPGVNYIVGDDYLAVNYGYYVWQRWINFIAVCLFFLFFTVLTCL” reads 55900.
For the sequence “APSIRYRLPFDSLLFVFCGTLLCTLIFLREALIPHFPCWVLLWGAYILLPLCF”, the “transcriptional activation domain activity” value was found to be 15900.
The result for “NDTKKNMSTSNLFPFSFSNTDLTALFTHPEGPNCTNTNNGNVDVCNRASTDAT” reads 51400; that for “VKPEAKAEHIKENTKPKPLGTKRANKAAEAPAPAAKKPVKKAAVPKKAAAAPA”, 59600.
The result for “DERRLVWPSRLTFMKVVFLLNRYVPFAGSFGMMYVLTLVNPVTQSDFCKHGFL” reads 54900.
With “MPLMIIFRFTIFIFILFQFLSFPSFGRGVFLSFIFFFIIFFSFHDQLFLILFF” the figure was 57000.
Regarding “MSPPCIVLKHLLFFLFSFHRILLQPVRRPSCFHISLYVLVVRLYWFRGILDFC”, the “transcriptional activation domain activity” value was determined as 38300.
In the case of “IVLSVLCSLLNTTLKYNPATWRVPYDHVVFKDSRQILVSYCLQFLLVLILYPV”, the “transcriptional activation domain activity” value stood at 46600.
Take “NDFEKLEFFNKYAKVNTNNDVNENNDLWNSYLQSMDDTTGKNSGNYQQVDNDD”: the “transcriptional activation domain activity” value came to 35700.
The result for “MFYGFGSLSYGKGVTEFFFFSFFFFVASFISCFLFNFFSSAQFCCLFFHFVLI” reads 58300.
For the sequence “IIDKLGSLTFVYARRNPITIGTFAATETAILEHYGAGNIWKYILWHWVICFYS”, the “transcriptional activation domain activity” value stood at 44400.
The result for “AAGETVHFSARAEVLTSKFGRTSKLSPRFIILTEKAVYILLAAARDGRVVVQL” reads 37700.
The result for “ISIAQIEIAILFHISFFIFYFVSISFLLLYFICCILCTYVLLIYSLSFLYLVV” reads 45800; that for “LCLPFFLSLLPFFQSWRYVNISLLLFFYSSSIFSPSFPFIYYFTVFFLSFLLL”, 29900.
With “HSACDIYYDNICLRLRLEGDLESYSYTARIVVVVLQLERRPMRGVPFITLVFD” the figure was 29400.
Regarding “IDVCLRERDANDYSRQVLGHYWENGIPLSSNRIIHDLLVILRNVIARVITAAK”, the “transcriptional activation domain activity” value is 42300.
The result for “MGSFLPFLFFSFCYTFVCYFFSIIALVVFVYFTLAVEFFFFFFGCLRCLLLWL” reads 57600; that for “SFRYHYGELRLSRLNKIHCITRFTWRDFVRGYMTTSTWYQDFFARNFAWLLAV”, 55900.
As for “WARNARKNKSTEEASAQEQRRGAQVIVIHPGSRFLRIGKASEVSPVTVLNVVA”, the “transcriptional activation domain activity” value is 55600.
With “MNLLFITFFLLVMWVVWFICVVVPFFLLLLLCFFSFLFFRLFGAGWLGWVGNF”, the “transcriptional activation domain activity” value was determined as 42500.
The result for “AEDKARKEAEDKAREEAEEKAREEQEEAARARADAEAKKAALEAKREAEAKAK” reads 16300.
“VLAMVAQIRTGLWLLHYRDFMLRELCYDQDLYILQTALIILEPDLVFLLQFFE”: the “transcriptional activation domain activity” value stood at 33500.
For “KGLNGPKKEDGGDGESRKRGRPEEDEEERKEGGGGGRRARRRERLQGAAGGGS”, the “transcriptional activation domain activity” value was determined as 18600.
For “SSSNSGGGGGVPEHILARVGYAVVSGLHFLKTKLNVIHRDVKPSNVLCSRAGD”, the “transcriptional activation domain activity” value amounted to 42900.
The result for “TSIFGSNNNNTGSGMFGGNNNTNTGTPFGGGGGFGTNTNTNTAFGSKPFGSST” reads 17500; that for “SKHEDQKSRRSRDEKDRGSRSSRHREDGHRSHRDRSRSRDRHHRSSKHHERRR”, 27700.
For “MISFFCDIPVFSLLVPFLPLSFMFPMSPMFYYFFIYAVGCSIFLSLLFFSYVI”, the “transcriptional activation domain activity” value was 28100.
The result for “GSELEVKKPSKKRAPKKAAKKEEYEGSEMDEKPAPKRRAPARSTKKAAKKEEA” reads 15800; that for “HAARALSLPSISPQFFVLLHKLSFPLLPFWLPMYFLLCITLPSSWLVLLYLFL”, 37800; that for “QLQPFSESQSQNKFDYDMFFRDSSKEGNNLFGEFLEDDDDDKKAANMSDDESS”, 43800.
The result for “MKIVWFSGPKVCTLFIFLLFCFLLSCCSAFLVSFFCWFLSCWLFLLAFGLLFF” reads 49400; that for “EHQCATIQLDFQLPQQFNLEYMTSEKAPAAKIEAAPKTETAPKAEAPAAAPAA”, 42500; that for “MIHLLQYAYLFLFLLMLYDTLCHAILFFLTLNLTNWWYPIPFNMILHFIVPLF”, 45300.
As to “PDDHKLLKALVFFLWVFDGLHIALICHAFYLITVTNFGNVLALLTIPRTLPIA”, the “transcriptional activation domain activity” value came to 58400.
For “QILGCLYCVRWVHMCVYNVSGVQSLIPWLAMLPALARLKFSIWSHRGPPPDGD”, the “transcriptional activation domain activity” value was 52100.
Regarding “ERGKRKEGRKEEEGKEGEKGKEEKREEKRRGKRGEEKREGKKKEERRRGRRRR”, the “transcriptional activation domain activity” value turned out to be 20800.
In the case of “SGKLVFGPVSVFNGNVSLRIKKPLKGMTLTVTFNGVAEVDKYLFTFLNISHEV”, the “transcriptional activation domain activity” value is 57800.
